Source: article PMC5727386
Residue numbers refer to the chain shown, from its start. Names may count otherwise.

B1: Bcr-Abl p210, P11274 R726A (protein)
chain: MVDPVGFAEAWKAQFPDSEPPRMELRSVGDIEQELERCKASIRRLEQEVNQERFRMIYLQTLLAKEKKSYDRQRWGFRRAAQAPDGASEPRASASRPQPAPADGADPPPAEEPEARPDGEGSPGKARPGTARRPGAAASGERDDRGPPASVAALRSNFERIRKGHGQPGADAEKPFYVNVEFHHERGLVKVNDKEVSDRISSLGSQAMQMERKKSQHGAGSSVGDASRPPYRGRSSESSCGVDGDYEDAELNPRFLKDNLIDANGGSRPPWPPLEYQPYQSIYVGGMMEGEGKGPLLRSQSTSEQEKRLTWPRRSYSPRSFEDCGGGYTPDCSSNENLTSSEEDFSSGQSSRVSPSPTTYRMFRDKSRSPSQNSQQSFDSSSPPTPQCHKRHRHCPVVVSEATIVGVRKTGQIWPNDGEGAFHGDADGSFGTPPGYGCAADRAEEQRRHQDGLPYIDDSPSSSPHLSSKGRGSRDALVSGALESTKASELDLEKGLEMRKWVLSGILASEETYLSHLEALLLPMKPLKAAATTSQPVLTSQQIETIFFKVPELYEIHKEFYDGLFPRVQQWSHQQRVGDLFQKLASQLGVYRAFVDNYGVAMEMAEKCCQANAQFAEISENLRARSNKDAKDPTTKNSLETLLYKPVDRVTRSTLVLHDLLKHTPASHPDHPLLQDALRISQNFLSSINEEITPRRQSMTVKKGEHRQLLKDSFMVELVEGARKLAHVFLFTDLLLCTKLKKQSGGKTQQYDCKWYIPLTDLSFQMVDELEAVPNIPLVPDEELDALKIKISQIKNDIQREKRANKGSKATERLKKKLSEQESLLLLMSPSMAFRVHSRNGKSYTFLISSDYERAEWRENIREQQKKCFRSFSLTSVELQMLTNSCVKLQTVHSIPLTINKEDDESPGLYGFLNVIVHSATGFKQSSNLYCTLEVDSFGYFVNKAKTRVYRDTAEPNWNEEFEIELEGSQTLRILCYEKCYNKTKIPKEDGESTDRLMGKGQVQLDPQALQDRDWQRTVIAMNGIEVKLSVKFNSREFSLKRMPSRKQTGVFGVKIAVVTKRERSKVPYIVRQCVEEIERRGMEEVGIYRVSGVATDIQALKAAFDVNNKDVSVMMSEMDVNAIAGTLKLYFRELPEPLFTDEFYPNFAEGIALSDPVAKESCMLNLLLSLPEANLLTFLFLLDHLKRVAEKEAVNKMSLHNLATVFGPTLLRPSEKESKLPANPSQPITMTDSWSLEVMSQVQVLLYFLQLEAIPAPDSKRQSILFSTEV
B2: Bcr-Abl p210, P11274 R723A; K724A (protein)
chain: B1 chain with R723A, K724A, A726R
B3: biotinylated Bcr-Abl PH domain (Avi-tag) (domain or fragment)
chain: GEHRQLLKDSFMVELVEGARKLRHVFLFTDLLLCTKLKKQSGGKTQQYDCKWYIPLTDLSFQMVDELEAVPNIPLVPDEELDALKIKISQIKNDIQREKRANKGSKATERLKKKLSEQESLLLLMSPSMAFRVHSRNGKSYTFLISSDYERAEWRENIREQQKKCFRSFSLTSVELQMLTNSCVKLQTVH
modifications: biotin on the Avi-tag

Key:
[1] = target: Tyrosine phosphatase Sts1, Q8BGG7; test: co-immunoprecipitation (anti-Bcr-Abl/Abl IP, Sts1 immunoblot, quantified); settings: chain shown with the change; BaF3 cells stably transduced with the Bcr-Abl variants; parent: est. 1.0; read off a plot
[2] = target: monobody Mb(Bcr-PH_4), displayed on yeast surface; test: flow cytometry on cells; monobody displayed on yeast surface; biotinylated target 10 nM to 1 uM in TBS with 0.1% BSA, 30 min at RT; streptavidin-DyLight650; 1:1 binding model; apparent Kd

Tyrosine phosphatase Sts1, Q8BGG7, sequence (Q8BGG7 whole entry): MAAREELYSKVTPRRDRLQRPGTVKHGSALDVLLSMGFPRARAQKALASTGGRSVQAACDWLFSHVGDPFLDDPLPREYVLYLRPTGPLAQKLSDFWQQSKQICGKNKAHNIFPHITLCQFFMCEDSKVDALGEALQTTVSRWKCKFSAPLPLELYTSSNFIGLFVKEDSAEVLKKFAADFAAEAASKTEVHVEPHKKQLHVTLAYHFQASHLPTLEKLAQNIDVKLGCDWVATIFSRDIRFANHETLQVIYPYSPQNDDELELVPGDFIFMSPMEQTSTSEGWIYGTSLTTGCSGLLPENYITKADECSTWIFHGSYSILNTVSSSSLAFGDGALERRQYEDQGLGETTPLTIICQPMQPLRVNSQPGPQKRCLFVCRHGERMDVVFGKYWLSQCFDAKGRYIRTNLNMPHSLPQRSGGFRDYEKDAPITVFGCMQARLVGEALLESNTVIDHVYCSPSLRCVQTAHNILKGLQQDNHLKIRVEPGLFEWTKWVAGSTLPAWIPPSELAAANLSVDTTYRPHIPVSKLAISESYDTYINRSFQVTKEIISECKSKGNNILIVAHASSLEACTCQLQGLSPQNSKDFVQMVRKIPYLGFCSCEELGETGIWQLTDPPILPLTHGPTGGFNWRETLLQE

Binder	ratio to parent [1]	Kd [2] [nM]
B1	0.34	
B2	0.53	
B3		33
